Assay results taken from patent publication US20190177414A1 (AKESO BIOPHARMA, published 2019).

Target: T1, CTLA4 antigen (CTLA4 protein obtained by cleaving the CTLA4-mFc fusion protein with TEV protease) (human, UniProt P16410 36-161)
T1 construct: extracellular domain; after cleavage part of the TEV site may remain at the C-terminus; also called CTLA4ECD
T1 sequence (looked up): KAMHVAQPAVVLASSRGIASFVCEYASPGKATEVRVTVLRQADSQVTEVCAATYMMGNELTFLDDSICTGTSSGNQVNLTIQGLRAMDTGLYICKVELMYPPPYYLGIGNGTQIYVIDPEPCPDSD
Assay: Octet (ForteBio) BLI; antibody amine-coupled to AR2G sensor, CTLA4 antigen in solution
Procedure: The dynamic parameters of the antigen—antibody binding were determined using the ForteBio molecular interaction analyzer (Octet). The CTLA4-mFc fusion protein prepared in Example 1 was cleaved using the TEV protease, and the CTLA4 antigen was obtained by purification on a column. […] After equilibration in PBST, the CTLA4 antigen was added for binding. […] Dissociation occurred in PBST.

- Kd: 0.301 nM
- koff: 0.000114 s⁻¹
- kon: 378000 M⁻¹ s⁻¹
B1: anti-CTLA4 antibody 4G10 (antibody, V domains shown)
VH: QVKLQESGPELVKPGASMKISCKASGYSFTGYTMNWVKQSHGKNLEWIGLINPYNNITNYNQKFMGKATFTVDKSSSTAYMELLRLTSEDSGVYFCARLDYRSYWGQGTLVTVSA
VL: QAVVTQESALTTSPGETVTLTCRSSTGAVTTSNFANWVQEKPDHLFTSLIGGTNNRAPGVPARFSGSLIGDKAALTITGAQTEDEAIYFCALWYSNHWVFGGGTKLTVLG
notes: Mouse monoclonal antibody purified from hybridoma supernatant; also called monoclonal antibody secreted by hybridoma cell line LT002 (CTLA4-4G10)
